Data on one molecule can be found in article PMC7591906, “pHLIP ICG for delineation of tumors and blood flow during fluorescence-guided surgery” (Scientific Reports, 2020).

Entries after “also recorded” stand apart in the source; their conditions may differ. Peptide text beside a SMILES is read from it. * marks the point of attachment. X1 = CC1(C)C(/C=C/C=C/C=C/C=C2/N(CCCCCC(=O)NCCN3C(=O)CC(*)C3=O)c3ccc4ccccc4c3C2(C)C)=[N+](CCCCS(=O)(=O)[O-])c2ccc3ccccc3c21

Series [1] concerns human peripheral blood lymphocytes. Nature of the series: In vitro mammalian cell micronucleus test. The format is cell-based. To be noted: up to 0.5 mg/mL. The protocol:
The objective of this study performed at CRL was to determine the potential genotoxicity of pHLIP ICG using an in vitro mammalian cell micronucleus test in human peripheral blood lymphocytes.
Human peripheral blood lymphocytes were treated with pHLIP ICG at levels up to the standard limit of 0.5 mg/mL. […] The negative control results were within the laboratory negative historical control range. Lymphocytes were also incubated with standard positive controls, which caused statistically significant increases in the proportion of cells with micronuclei, confirming the sensitivity of the test system and the activity of the S9 mix. All criteria for a valid assay were therefore met.

Series [2] is described as follows: Imaging of blood vessels in pigs. To be noted: i.v. 0.052 + 0.12 + 0.24 mg/kg, Stryker 1688 AIM and SPY-PHI. Type of series: in vivo. Here is the method: Pigs (50 kg) received pHLIP ICG dissolved in PBS or PBS containing 5% Ethanol. Three doses of pHLIP ICG were administered (dose level 1 is 0.052 mg/kg of pHLIP ICG, dose level 2 is an additional administration of 0.12 mg/kg of pHLIP ICG and dose level 3 is an additional administration of 0.24 mg/kg of pHLIP ICG). Each dose was injected intravenously in one bolus followed by a saline flush. Endoscopical and exoscopical imaging was performed at the same time and up to 2 hrs after pHLIP ICG administration. Endoscopic imaging was carried out using the Stryker 1688 system with the L11 light source (808 nm excitation) and adjustable gain. […] Images and video were recorded on a Stryker Connected OR Hub device. […] The overlay mode captures an NIR frame and a white light frame and combines the two to allow surgeons to have the best fluorescence reference (green) while still operating. […] The ENV mode contains the white light frame data in a black/white mode and overlays the fluorescence signal in green to provide a hybrid mode that allows a higher signal-to-noise ratio view of the fluorescence image while still retaining enough of a view of the surrounding tissue to allow the surgeon to continue to operate. The SPY-PHI system has three infrared imaging modes: Overlay, Contrast, and CSF (color-segmented fluorescence). […]

In series [3] the test system is Salmonella typhimurium strains (TA1535, TA1537, TA98, TA100 and TA102). The experiment in a line: In vitro bacterial reverse mutation test. Type of series: cell-based. To be noted: up to 5000 µg/plate, with and without S9 mix. Here is the method:
The objective of this study performed at CRL was to determine the potential genotoxicity of pHLIP ICG using the bacterial reverse mutation test.
Salmonella typhimurium strains (TA1535, TA1537, TA98, TA100 and TA102) were treated with pHLIP ICG at a range of concentrations up to 5000 µg/plate (the standard limit dose for this assay), in the presence and absence of a supplemented rat liver fraction (S9 mix), using the plate incorporation version of the bacterial reverse mutation test.
Bacteria were incubated with standard positive controls, and the response of the various bacterial strains to these agents confirmed the sensitivity of the test system and the activity of the S9 mix.

Series [4] can be described thus: Stability of pHLIP ICG formulations in solution (analytical HPLC). Type of series: physicochemical. To be noted: protected from light. Here is the method: Stability studies were performed with pHLIP ICG formulations in PBS and PBS containing 5% DMSO or 5% Ethanol (vol/vol). The tumor targeting capability in mice is independent of formulation. Formulation of pHLIP ICG in PBS/5% Ethanol was used in PoC animal studies, and in toxicity studies on mice, rats and dogs. For the PBS/5%DMSO formulation 1 mg of the lyophilized powder of pHLIP ICG was dissolved in 75 µl of DMSO (to make 3.2 mM solution), then 10 µl of 3.2 mM stock was mixed with 190 µl PBS to make a 0.16 mM solution of pHLIP ICG (5% DMSO). For the PBS/5%Ethanol formulation, the lyophilized powder of pHLIP ICG was dissolved at a concentration of 1.6 mg/ml in PBS/5% Ethanol solution. Finally, the formulation selected for human use was prepared by dissolving the lyophilized powder of pHLIP ICG at a concentration of 0.8 mg/ml in PBS. All formulations were kept at room temperature and protected from light. The aliquots were taken at 0.5 or 1, 3, 6, 24, 48 and 72 hours (102 hrs for pHLIP ICG dissolved in PBS) for analytical HPLC analysis using a Zorbax SB-C18 column (4.6 x 250 mm, 5 µm) with a binary solvent system using a […] water and acetonitrile gradient with 0.05% TFA over 25 min. […] Formulation of pHLIP ICG in PBS was stable in solution for 4 days kept at RT.

Series [5] in a line: Peripheral blood micronucleus test in rats (GLP). Type of series: in vivo, Sprague Dawley rats. The protocol:
The objective of this GLP study performed at CRL was to determine the potential genotoxicity of pHLIP ICG when given by i.v. bolus injection to rats using the peripheral blood micronucleus test.
In order to determine the maximum tolerated dose, a dose-range finding test was performed prior to the main test, where male and female rats (3 animals/sex) were administered a single dose of pHLIP ICG by i.v. injection. The doses evaluated were 14 mg/kg and 25 mg/kg using 5% EtOH in PBS, pH 7.4 as the vehicle.
Blood was collected for micronuclei evaluation at 45 hours post-dose (Groups 3 to 7), and 69 hours post-dose (Groups 3 and 7). The proportion of immature erythrocytes among total erythrocytes in the peripheral blood (%RETs) and the percentage of micronucleated reticulocytes (%MN-RETs) in the NC group were within the laboratory historical negative control range. […] The results from both NC and PC groups confirmed the validity of the assay.

A short description of series [6]: Biodistribution, %ID/g estimated from tissue/organ homogenates. Type of series: in vivo, BALB/c mice. Particulars: BALB/c, mouse, small and large intestines, bone, skin, muscle, prostate, iv, 0.5 mg/kg; all time points; estimate; read-out: Amount in small and large intestines, bone, skin and muscle (and prostate). Here is the method:
The fluorescence signals in organs and tissue were also measured in the tissue/organ homogenates and compared with the signals from the control tissue/organ homogenates (collected from control mice) mixed with known amounts of pHLIP ICG. Samples of about 100 mg of tissue were homogenized with 2.5x (about 250 µL) volumes of DMSO using BioMasher II disposable homogenizers (DiagnoCine, LLC). 30 µl of each homogenate was placed into a 384-well plate and imaged using an Odyssey IR scanner (Li-Cor Biosciences). Tissue homogenates of control mice mixed with known concentrations of pHLIP ICG were used to establish the calibration curve.

[7] abbreviates: male rats, single i.v. 6.25, 12.5 and 25 mg/kg.

In the case of `CC(C)C[C@H](NC(=O)[C@H](Cc1ccc(O)cc1)NC(=O)[C@H](C)NC(=O)[C@H](CCCNC(=N)N)NC(=O)[C@H](Cc1c[nH]c2ccccc12)NC(=O)[C@@H]1CCCN1C(=O)[C@H](CC(N)=O)NC(=O)[C@H](CCC(N)=O)NC(=O)[C@H](CC(=O)O)NC(=O)[C@H](CC(=O)O)NC(=O)[C@H](CSC1CC(=O)N(CCNC(=O)CCCCCN2/C(=C/C=C/C=C/C=C/C3=[N+](CCCCS(=O)(=O)[O-])c4ccc5ccccc5c4C3(C)C)C(C)(C)c3c2ccc2ccccc32)C1=O)NC(=O)[C@H](C)N)C(=O)N[C@@H](CC(=O)O)C(=O)N[C@@H](CC(C)C)C(=O)N[C@@H](CC(C)C)C(=O)N[C@@H](Cc1ccccc1)C(=O)N1CCC[C@H]1C(=O)N[C@H](C(=O)N[C@@H](CC(=O)O)C(=O)N[C@H](C(=O)N[C@@H](CC(C)C)C(=O)N[C@@H](CC(C)C)C(=O)N[C@@H](CC(C)C)C(=O)N[C@@H](CC(=O)O)C(=O)N[C@@H](CC(C)C)C(=O)N[C@@H](CC(C)C)C(=O)N[C@@H](Cc1c[nH]c2ccccc12)C(=O)N[C@@H](C)C(=O)O)[C@@H](C)O)[C@@H](C)O` (some centres unmarked) [pHLIP ICG] (H-AC(X1)DDQNPWRAYLDLLFPTDTLLLDLLWA-OH), the “Cytotoxicity or precipitation in the assay” value in series [1] is reported as “no pHLIP ICG related cytotoxicity or precipitation was observed”. Besides, in series [1] (4 h without/with S9, 24 h without S9), the Induction of micronuclei result is “did not show any evidence of genotoxic activity; also recorded: negative for the induction of micronuclei”. The “Visibility of illuminated blood vessels” value in series [2] is reported as “clearly visible at 2 h post-injection”. Also, the “Toxicity to the bacteria” value in series [3] is recorded as “non-toxic to the bacteria at the levels tested”. The “Mutagenicity, revertant colonies” value in series [3] (plate incorporation) was “did not show any evidence of genotoxic activity; also recorded: negative for the induction of mutagenicity”. For the same molecule, the “Stability (purity) of all formulations” value in series [4] (PBS, PBS/5% DMSO, PBS/5% Ethanol, up to 72 hours at room temperature, analytical HPLC) was over 95%. Moreover, the “Time stable in solution” value in series [4] (reconstituted in PBS (0.8 mg/ml), room temperature, analytical HPLC Zorbax SB-C18) was found to be 4 days. Moreover, in series [5] (setting [7]), the “Genotoxic activity (%MN-RETs)” value is “did not induce cytogenetic damage; also recorded: showed no evidence of genotoxic activity” and the “Reduction in %RETs (cytotoxicity)” value is “No substantial reduction”. For the same molecule, the “Clinical signs in dose-range finding test” value in series [5] (rats 3 animals/sex, single i.v. 14 mg/kg and 25 mg/kg) is “no adverse clinical signs were noted”. Moreover, the tissue uptake in series [6] is under 2 %ID/g.
